Paper PMC10771525 (Communications Biology, 2024)
Where two headings read alike, the source gives them in different places. Each block holds one molecule with its values, some of them ahead of it. Where a SMILES comes first, the peptide text is derived from it. [ ]: non-standard residue; d: D form.

Tests used:
PTGIR = PTGIR (Homo sapiens, UniProt P43119); experiment: GPCR panel (control), Arrestin, CHO-K1; type: cell-based; conditions: reference agonist
MTNR1B = experiment: GPCR panel (control), Arrestin, CHO-K1; type: cell-based, human; conditions: reference agonist
MTNR1A = experiment: GPCR panel (control), Arrestin, CHO-K1; type: cell-based, human; conditions: reference agonist
P2RY12 = experiment: GPCR panel (control), Arrestin, CHO-K1; type: cell-based, human; conditions: reference agonist
P2RY11 = experiment: GPCR panel (control), Arrestin, CHO-K1; type: cell-based, human; conditions: reference agonist
OPRD1 = target: T1, OPRD1 (Homo sapiens, UniProt P41143); experiment: GPCR panel (control), Arrestin, CHO-K1; type: cell-based; conditions: reference agonist
T1 construct: expressed in transfected cells; host or cells: CHO-K1

TBXA2R = experiment: GPCR panel (control), Arrestin, U2OS; type: cell-based, human; conditions: reference agonist
KISS1R = target: T2, KISS1R (Homo sapiens, UniProt Q969F8); experiment: GPCR panel (control), Arrestin, U2OS; type: cell-based
T2 construct: expressed in transfected cells; host or cells: U2OS

PTAFR = experiment: GPCR panel (control), Arrestin, CHO-K1; type: cell-based, human; conditions: reference agonist
P2RY4 = experiment: GPCR panel (control), Arrestin, CHO-K1; type: cell-based, human; conditions: reference agonist
P2RY2 = experiment: GPCR panel (control), Arrestin, U2OS; type: cell-based, human; conditions: reference agonist
P2RY6 = experiment: GPCR panel (control), Arrestin, CHO-K1; type: cell-based, human; conditions: reference agonist
CCR1 = experiment: GPCR panel (control), Arrestin, CHO; type: cell-based, human; conditions: reference agonist
MRGPRX2 = target: T3, MRGPRX2 (Homo sapiens, UniProt Q96LB1); experiment: calcium mobilization assay, CHEM-1 cells recombinantly expressing MRGPRX2; type: cell-based; design: host or cells: CHEM-1 adherent rat hematopoietic cells; conditions: for MRGPRX2 activation, Readout 1 / MRGPRX2 activation, Readout 2: Fig. 3b, fragment 1 µM, normalized to 1 µM CXCL14 (100%); for MRGPRX2 activation (in words): large CXCL14 fragments, CHEM1 cells overexpressing MRGPRX2; for EC50: Fluo-8, FLIPR, read-out: EC50, calcium mobilization assays; for pEC50: Fig. 3d
T3 sequence (Q96LB1 1-330): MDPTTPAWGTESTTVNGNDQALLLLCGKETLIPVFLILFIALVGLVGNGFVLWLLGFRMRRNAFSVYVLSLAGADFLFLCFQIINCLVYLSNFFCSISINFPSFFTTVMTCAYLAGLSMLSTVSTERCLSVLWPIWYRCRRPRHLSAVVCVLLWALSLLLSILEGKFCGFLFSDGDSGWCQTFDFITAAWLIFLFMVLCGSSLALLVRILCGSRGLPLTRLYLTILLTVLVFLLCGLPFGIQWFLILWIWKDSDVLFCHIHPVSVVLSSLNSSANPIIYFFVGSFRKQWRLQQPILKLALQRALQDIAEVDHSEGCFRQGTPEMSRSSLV
From the text: To confirm the initial results obtained in the β-arrestin recruitment assays, we established calcium mobilization assays in two different recombinant cell lines, CHEM-1 and LN229 cells, respectively. CHEM-1 cells are adherent rat hematopoietic cells with a high endogenous expression level of the promiscuous Gα15 protein enabling the measuring of calcium signaling of a large variety of GPCRs. […]. Subsequently, we employed recombinant human glioblastoma LN229 cells, a human cell line derived from glioblastoma multiforme tumors. […].
The cell lines CHEM1 and CHEM1-MRGPRX2 are adherent rat cell lines (HTSCHEM-1RTA, HTS058RTA, Merck-Millipore, Darmstadt, Germany); which were cultured under standard cell culture conditions.
A cell-based fluorometric assay was employed for the determination of intracellular calcium release using Fluo-8. Cells were seeded into microtiter plates and incubated under standard cell culture conditions. After 24 h the medium was removed, and the cells were washed with phosphate-buffered saline (PBS). The cells were incubated with loading buffer (40 ml PBS with 2 mM Ca^2+, 800 µl of brilliant black solution (2%), 732 µl of probenecid solution (0.5 M) in 1 N NaOH, 400 µL of pluronic (10%) in water, and 152 µl of Fluo-8 (5.7 ng/ml in water)) for 30 min. For fluorescence readout and compound testing a FLIPR tetra system was used according to the manufacture’s protocol (Molecular Devices, CA 94089- 1136, USA).

[1] = target: MRGPRX2 in CHEM-1 cells (human) (UniProt Q96LB1)
PROKR2 = experiment: GPCR panel (control), Arrestin, CHO-K1; type: cell-based, human; conditions: reference agonist
PROKR1 = experiment: GPCR panel (control), Arrestin, CHO-K1; type: cell-based, human; conditions: reference agonist
[2] = target: MRGPRX2 in the calcium mobilization assays of the small CXCL14 fragments and mutants (human) (UniProt Q96LB1)
[3] = target: T4, mouse MRGPRB2 in 1321N1 astrocytoma cells (mouse) (UniProt Q3KNA1)
T4 sequence: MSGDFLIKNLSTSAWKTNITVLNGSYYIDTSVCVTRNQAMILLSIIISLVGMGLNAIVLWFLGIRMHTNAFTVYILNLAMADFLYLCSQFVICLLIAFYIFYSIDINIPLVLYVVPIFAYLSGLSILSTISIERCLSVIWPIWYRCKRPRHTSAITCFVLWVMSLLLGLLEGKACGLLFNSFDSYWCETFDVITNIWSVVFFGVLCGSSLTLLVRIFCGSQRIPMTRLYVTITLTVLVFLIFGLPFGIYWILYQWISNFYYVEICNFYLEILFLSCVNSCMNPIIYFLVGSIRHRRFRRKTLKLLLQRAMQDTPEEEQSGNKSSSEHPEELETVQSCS

[4] = target: MRGPRX2 fused to ProLink (PK), in CHO β-arrestin cells (human) (UniProt Q96LB1)
[5] = target: MRGPRX2 in the calcium mobilization assays of the small CXCL14 fragments and mutants (human) (UniProt Q96LB1); remark: listed apart in the source
[6] = CHEM-1 cells recombinantly expressing MRGPRX2

T2 sequence (Q969F8 whole entry): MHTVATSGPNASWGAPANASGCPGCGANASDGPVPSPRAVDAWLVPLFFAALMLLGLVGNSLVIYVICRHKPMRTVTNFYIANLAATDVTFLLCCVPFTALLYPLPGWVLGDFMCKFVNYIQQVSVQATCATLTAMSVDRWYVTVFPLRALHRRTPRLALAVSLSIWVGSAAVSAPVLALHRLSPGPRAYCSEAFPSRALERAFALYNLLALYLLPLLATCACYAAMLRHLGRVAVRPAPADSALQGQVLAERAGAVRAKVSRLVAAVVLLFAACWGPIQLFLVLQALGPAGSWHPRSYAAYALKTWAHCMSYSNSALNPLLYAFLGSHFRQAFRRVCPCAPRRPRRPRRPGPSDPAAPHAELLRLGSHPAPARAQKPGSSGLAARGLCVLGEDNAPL
Sequence of PTGIR (P43119 1-383): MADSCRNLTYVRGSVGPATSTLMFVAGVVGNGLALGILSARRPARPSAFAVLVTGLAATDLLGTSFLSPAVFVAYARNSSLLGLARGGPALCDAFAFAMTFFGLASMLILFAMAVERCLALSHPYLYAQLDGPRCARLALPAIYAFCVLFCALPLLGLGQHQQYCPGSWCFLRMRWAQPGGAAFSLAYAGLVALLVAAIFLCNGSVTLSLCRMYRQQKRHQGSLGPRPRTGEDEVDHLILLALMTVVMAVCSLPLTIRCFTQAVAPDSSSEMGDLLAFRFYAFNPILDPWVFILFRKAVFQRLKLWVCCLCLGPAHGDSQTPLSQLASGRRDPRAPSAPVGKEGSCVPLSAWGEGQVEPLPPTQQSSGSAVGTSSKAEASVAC
T1 sequence (P41143 whole entry): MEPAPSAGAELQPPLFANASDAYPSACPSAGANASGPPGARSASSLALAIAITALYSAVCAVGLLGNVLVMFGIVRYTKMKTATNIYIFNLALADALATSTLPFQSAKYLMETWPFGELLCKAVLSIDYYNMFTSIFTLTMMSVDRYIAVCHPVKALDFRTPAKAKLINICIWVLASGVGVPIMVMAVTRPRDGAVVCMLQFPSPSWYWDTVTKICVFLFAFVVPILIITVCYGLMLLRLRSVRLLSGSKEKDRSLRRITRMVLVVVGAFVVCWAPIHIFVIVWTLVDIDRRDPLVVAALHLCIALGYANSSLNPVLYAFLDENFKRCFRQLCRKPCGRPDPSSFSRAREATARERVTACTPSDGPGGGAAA

Molecule: CC#CCC(C)[C@H](O)/C=C/[C@@H]1[C@H]2c3cccc(CCCC(=O)O)c3O[C@H]2C[C@H]1O (mixture of isomers) [Beraprost]
EC50 (PTGIR): 0.39 µM
EC80 (PTGIR): 18 µM

Molecule: COc1ccc2[nH]c(I)c(CCNC(C)=O)c2c1 [2-Iodomelatonin]
EC50 (MTNR1B): 0.084 nM
EC80 (MTNR1B): 0.0042 µM
EC50 (MTNR1A): 0.085 nM
EC80 (MTNR1A): 0.0051 µM

Molecule: CSc1nc(N)c2ncn([C@@H]3O[C@H](COP(=O)(O)OP(=O)(O)O)[C@@H](O)[C@H]3O)c2n1 [2-methylthio-ADP]
EC50 (P2RY12): 0.0026 µM
EC80 (P2RY12): 0.058 µM

Molecule: Nc1ncnc2c1ncn2[C@@H]1O[C@H](COP(=O)(O)OP(=O)(O)OP(=O)(O)O)[C@@H](O)[C@H]1O [ATP]
EC50 (P2RY11): 350 µM
EC80 (P2RY11): 13000 µM

Molecule: CSCC[C@H](NC(=O)[C@H](CC(C)C)NC(=O)[C@H](Cc1cnc[nH]1)NC(=O)[C@H](Cc1ccccc1)NC(=O)[C@@H](CCSC)NC(=O)[C@@H](N)Cc1ccc(O)cc1)C(=O)N[C@@H](CC(=O)O)C(N)=O [Deltorphin A] (H-Y[dM]FHLMD-NH2)
EC50 (OPRD1): 0.0023 µM
EC80 (OPRD1): 0.054 µM

Molecule: CC(C)C[C@H](NC(=O)CNC(=O)[C@H](Cc1ccccc1)NC(=O)[C@H](CO)NC(=O)[C@H](CC(N)=O)NC(=O)[C@H](Cc1c[nH]c2ccccc12)NC(=O)[C@H](CC(N)=O)NC(=O)[C@@H](N)Cc1ccc(O)cc1)C(=O)N[C@@H](CCCN=C(N)N)C(=O)N[C@@H](Cc1ccccc1)C(N)=O [Kisspeptin-10]
EC50 (KISS1R): 0.063 µM
EC80 (KISS1R; reference agonist, KISS1R, U2OS, Arrestin): 1.1 µM

Molecule: CCCCCCCCCCCCCCCCOC[C@H](COP(=O)([O-])OCC[N+](C)(C)C)OC(C)=O [PAF]
EC50 (PTAFR): 0.0063 µM
EC80 (PTAFR): 0.32 µM

Molecule: CCL3/MIP1a
EC50 (CCR1): 0.0081 µM
EC80 (CCR1): 0.57 µM

Molecule: CXCL14(1-44): large CXCL14 fragment, inactive (SKCKCSRKGPKIRYSDVKKLEMKPKYPHCEEKMVIITTKSVSRY)
MRGPRX2 activation, Readout 1 (MRGPRX2): 0.3%
MRGPRX2 activation, Readout 2 (MRGPRX2): 0.6%
MRGPRX2 activation (in words) (MRGPRX2): inactive

B2: CXCL14(1-32/56-77) (domain or fragment)
chain: SKCKCSRKGPKIRYSDVKKLEMKPKYPHCEEKQSTKRFIKWYNAWNEKRRVYEE
EC50, calcium mobilization, CHEM1 cells overexpressing MRGPRX2 [1]: 0.678 µM
Emax, calcium mobilization, CHEM1 cells overexpressing MRGPRX2, normalized to the maximal effect of CXCL14 [1]: 175%

B4: CXCL14(1-11/18-77) (domain or fragment)
chain: SKCKCSRKGPKKKLEMKPKYPHCEEKMVIITTKSVSRYRGQEHCLHPKLQSTKRFIKWYNAWNEKRRVYEE
EC50, calcium mobilization, CHEM1 cells overexpressing MRGPRX2 [1]: 0.379 µM
Emax, calcium mobilization, CHEM1 cells overexpressing MRGPRX2, normalized to the maximal effect of CXCL14 [1]: 205%
improvement of potency compared to CXCL14 (MRGPRX2; [6]): 3 fold
EC50 (MRGPRX2; [6]): 0.379 µM
Emax, calcium mobilization assays (MRGPRX2; CHEM-1 cells recombinantly expressing MRGPRX2, normalized to the maximal effect of CXCL14): 205%
MRGPRX2 activation, Readout 1 (MRGPRX2): 203%
MRGPRX2 activation, Readout 2 (MRGPRX2): 208%
pEC50 (MRGPRX2; replicate column 1): 6.419
pEC50 (MRGPRX2; replicate column 2): 6.454

Second part, led by results:

EC50 (TBXA2R): 0.12 µM
Molecule: O=C(O)CCC/C=C\C[C@@H]1[C@@H](/C=C/[C@@H](O)COc2ccc(I)cc2)[C@H]2CC[C@@H]1O2 [I-BOP]
EC80 (TBXA2R): 2.4 µM

EC50 (P2RY4): 0.11 µM
EC50 (P2RY2): 0.42 µM
EC50 (P2RY6): 0.1 µM
Molecule: O=c1ccn([C@@H]2O[C@H](COP(=O)(O)OP(=O)(O)OP(=O)(O)O)[C@@H](O)[C@H]2O)c(=O)[nH]1 [UTP]
EC80 (P2RY4): 3.3 µM
EC80 (P2RY2): 12 µM
EC80 (P2RY6): 2.7 µM

MRGPRX2 activation, Readout 1 (MRGPRX2): 10%
MRGPRX2 activation, Readout 2 (MRGPRX2): 8%
MRGPRX2 activation (in words) (MRGPRX2): inactive
B1: CXCL14(1-56/64-77): largest inactive CXCL14 fragment, lacks STKRFIK (peptide)
chain: SKCKCSRKGPKIRYSDVKKLEMKPKYPHCEEKMVIITTKSVSRYRGQEHCLHPKLQWYNAWNEKRRVYEE

EC50, calcium mobilization, CHEM1 cells overexpressing MRGPRX2 [1]: 0.68 µM
Emax, calcium mobilization, CHEM1 cells overexpressing MRGPRX2, normalized to the maximal effect of CXCL14 [1]: 164%
Molecule: KSVSRYRGQEHCLHPKLQSTKRFIKWYNAWNEKRRVYEE (domain or fragment) [CXCL14(39-77)]

MRGPRX2 activation, Readout 1 (MRGPRX2): 36%
MRGPRX2 activation, Readout 2 (MRGPRX2): 38%
MRGPRX2 activation (in words) (MRGPRX2): inactive
B3: CXCL14(1-63): large CXCL14 fragment, inactive (peptide)
chain: SKCKCSRKGPKIRYSDVKKLEMKPKYPHCEEKMVIITTKSVSRYRGQEHCLHPKLQSTKRFIK

EC50 (PROKR2): 0.0051 µM
EC50 (PROKR1): 0.049 µM
B5: EG VEGF (protein, UniProt P58294 20-105, looked up)
Prokineticin-1: AVITGACERDVQCGAGTCCAISLWLRGLRMCTPLGREGEECHPGSHKVPFFRKRKHHTCPCLPNLLCSRFPDGRYRCSMDLKNINF
EC80 (PROKR2): 0.41 µM
EC80 (PROKR1): 2.4 µM

EC50, calcium mobilization, CHEM1 cells overexpressing MRGPRX2 [1]: 0.751 µM
EC50 (MRGPRX2; [6]): 0.751 µM
pEC50 (MRGPRX2; replicate column 1): 6.175
pEC50 (MRGPRX2; replicate column 2): 6.411
B6: CXCL14(15-77) (domain or fragment)
chain: SDVKKLEMKPKYPHCEEKMVIITTKSVSRYRGQEHCLHPKLQSTKRFIKWYNAWNEKRRVYEE

EC50, calcium mobilization at MRGPRX2 [2]: 0.316 µM
Emax, calcium mobilization at MRGPRX2 [2]: 155%
EC50, calcium mobilization, 1321N1 astrocytoma cells expressing MRGPRB2 [3]: 1.26 µM
Emax, calcium mobilization, 1321N1 astrocytoma cells expressing MRGPRB2 [3]: 127%
Molecule: KRFIKWY [CXCL14(59-65)]

EC50, calcium mobilization at MRGPRX2 [2]: 2.15 µM
Emax, calcium mobilization at MRGPRX2 [2]: 130%
EC50, calcium mobilization, 1321N1 astrocytoma cells expressing MRGPRB2 [3]: 2.32 µM
Emax, calcium mobilization, 1321N1 astrocytoma cells expressing MRGPRB2 [3]: 117%
Molecule: RFIKWY [CXCL14(60-65)]

EC50, β-arrestin recruitment at MRGPRX2 [4]: 50.4 µM
Emax, β-arrestin recruitment at MRGPRX2, normalized to the maximal effect of CXCL14 [4]: 53%
EC50, calcium mobilization at MRGPRX2 [5]: > 10 µM
Molecule: STKRFIK [CXCL14(57-63)]
